In patent publication US20240132550A1 (GlaxoSmithKline, published 2024):

Legend:
[1] = molecular target: T1, factor H (hfH) domain 6-7 (human, UniProt P08603 321-443); experiment: SPR, fH 6-7 immobilised on CM-5 chip, fHbp as analyte
T1 construct: domain: factor H 6-7 domain; also called factor H 6-7 domain; factor H domain 6-7
T1 sequence: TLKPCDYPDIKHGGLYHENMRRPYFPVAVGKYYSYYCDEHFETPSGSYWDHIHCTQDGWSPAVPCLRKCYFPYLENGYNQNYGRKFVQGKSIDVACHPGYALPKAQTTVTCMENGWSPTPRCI

[2] = molecular target: T2, factor H, Human (Merck Millipore) (human, UniProt P08603 19-1231); experiment: SPR, full-length human factor H immobilised on CM-5 chip, fHbp analyte at 250 nM
T2 construct: mature; also called full-length factor H protein; full length fH protein
T2 sequence (P08603 19-1231): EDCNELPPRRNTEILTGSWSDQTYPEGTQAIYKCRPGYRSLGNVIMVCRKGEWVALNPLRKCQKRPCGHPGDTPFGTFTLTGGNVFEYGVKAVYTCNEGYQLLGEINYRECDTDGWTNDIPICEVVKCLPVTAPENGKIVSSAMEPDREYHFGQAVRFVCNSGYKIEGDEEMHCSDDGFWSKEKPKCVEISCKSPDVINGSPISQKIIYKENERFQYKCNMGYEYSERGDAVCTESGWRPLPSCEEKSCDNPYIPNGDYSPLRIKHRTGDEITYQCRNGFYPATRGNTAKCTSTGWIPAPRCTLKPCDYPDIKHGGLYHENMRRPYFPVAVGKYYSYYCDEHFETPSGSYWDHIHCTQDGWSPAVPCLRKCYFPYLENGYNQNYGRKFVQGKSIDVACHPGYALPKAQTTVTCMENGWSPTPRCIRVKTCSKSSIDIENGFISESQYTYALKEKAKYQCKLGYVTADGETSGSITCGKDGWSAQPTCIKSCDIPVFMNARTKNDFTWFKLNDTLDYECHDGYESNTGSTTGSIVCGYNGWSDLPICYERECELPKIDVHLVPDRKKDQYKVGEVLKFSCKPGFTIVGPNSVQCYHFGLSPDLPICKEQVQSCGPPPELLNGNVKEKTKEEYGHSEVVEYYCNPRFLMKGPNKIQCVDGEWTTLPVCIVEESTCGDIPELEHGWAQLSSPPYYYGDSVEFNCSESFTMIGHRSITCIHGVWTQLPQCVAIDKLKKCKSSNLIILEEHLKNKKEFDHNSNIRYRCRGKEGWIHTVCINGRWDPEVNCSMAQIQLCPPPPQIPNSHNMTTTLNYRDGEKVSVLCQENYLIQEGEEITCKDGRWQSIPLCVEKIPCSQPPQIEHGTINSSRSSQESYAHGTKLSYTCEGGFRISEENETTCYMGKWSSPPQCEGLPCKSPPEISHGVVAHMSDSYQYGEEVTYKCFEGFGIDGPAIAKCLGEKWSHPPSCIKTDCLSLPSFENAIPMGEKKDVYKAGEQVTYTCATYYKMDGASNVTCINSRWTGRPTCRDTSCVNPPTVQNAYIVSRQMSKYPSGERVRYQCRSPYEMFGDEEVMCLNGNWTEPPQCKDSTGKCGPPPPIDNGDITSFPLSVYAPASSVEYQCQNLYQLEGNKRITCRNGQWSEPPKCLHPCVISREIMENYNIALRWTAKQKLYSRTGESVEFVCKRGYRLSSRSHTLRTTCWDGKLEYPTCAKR

[3] = molecular target: T2, factor H, Human (Merck Millipore); experiment: SPR, full-length human factor H immobilised on CM-5 chip, fHbp as analyte

B1: fHbp v1.15 E214A/S219R (other)
chain: VAADIGAGLADALTAPLDHKDKGLKSLTLEDSISQNGTLTLSAQGAERTFKAGDKDNSLNTGKLKNDKISRFDFIRQIEVDGQLITLESGEFQVYKQSHSALTALQTEQVQDSEHSGKMVAKRQFRIGDIVGEHTSFGKLPKDVMATYRGTAFGSDDAGGKLTYTIDFAAKQGHGKIEHLKSPELNVDLAAADIKPDEKHHAVISGSVLYNQAAKGSYRLGIFGGQAQEVAGSAEVETANGIRHIGLAAKQHHHHHH
notes: also called v1.15 ΔG (E214A/S219R)
B1: no binding (tested: 250 nM) [1]; binds [2].

B2: fHbp v1.15 E214A/E235A (other)
chain: VAADIGAGLADALTAPLDHKDKGLKSLTLEDSISQNGTLTLSAQGAERTFKAGDKDNSLNTGKLKNDKISRFDFIRQIEVDGQLITLESGEFQVYKQSHSALTALQTEQVQDSEHSGKMVAKRQFRIGDIVGEHTSFGKLPKDVMATYRGTAFGSDDAGGKLTYTIDFAAKQGHGKIEHLKSPELNVDLAAADIKPDEKHHAVISGSVLYNQAAKGSYSLGIFGGQAQEVAGSAAVETANGIRHIGLAAKQHHHHHH
notes: also called v1.15 ΔG (E214A/E235A)
B2: no binding (tested: 250 nM) [1]; no binding (tested: 250 nM) [3].

B3: fHbp v1.15 (other)
chain: VAADIGAGLADALTAPLDHKDKGLKSLTLEDSISQNGTLTLSAQGAERTFKAGDKDNSLNTGKLKNDKISRFDFIRQIEVDGQLITLESGEFQVYKQSHSALTALQTEQVQDSEHSGKMVAKRQFRIGDIVGEHTSFGKLPKDVMATYRGTAFGSDDAGGKLTYTIDFAAKQGHGKIEHLKSPELNVDLAAADIKPDEKHHAVISGSVLYNQAEKGSYSLGIFGGQAQEVAGSAEVETANGIRHIGLAAKQLEHHHHHH
B3: binds [2].

B4: fHbp v1.15 E214A (other)
chain: VAADIGAGLADALTAPLDHKDKGLKSLTLEDSISQNGTLTLSAQGAERTFKAGDKDNSLNTGKLKNDKISRFDFIRQIEVDGQLITLESGEFQVYKQSHSALTALQTEQVQDSEHSGKMVAKRQFRIGDIVGEHTSFGKLPKDVMATYRGTAFGSDDAGGKLTYTIDFAAKQGHGKIEHLKSPELNVDLAAADIKPDEKHHAVISGSVLYNQAAKGSYSLGIFGGQAQEVAGSAEVETANGIRHIGLAAKQLEHHHHHH
notes: also called v1.15 ΔG (E214A) + His tag
B4: binds [2].
